Results on 78 sequences are retold here after the supplement of paper PMC7877785.

The data set can be described thus: self-splicing fitness, log relative to wild type (ln ratio); higher = more splicing; Tetrahymena group I intron in knt gene, E. coli kanamycin selection, DiMSum; sequences stand for … in CUCUCU…GGAGGGAAAAGUUAUCAGGCAUGCACCUGGUAGCUAGUCUUUAAACCAAUAGAUUGCAUCGGUUUAAAAGGCAAGACCGUCAAAUUGCGGGAAAGGGGUCAACAGCCGUUCAGUACCAAGUCUCAGGGGAAACUUUGAGAUGGCCUUGCAAAGGGUAUGGUAAUAAGCUGACGGACAUGGUCCUAACCACGCAGCCAAGUCCUAAGUCAACAGAUCUUCUGUUGAUAUGGAUGCAGUUCACAGACUAAAUGUCGGUCGGGGAAGAUGUAUUCUUCUCAUAAGAUAUAGUCGGACCUCUCCUUAAUGGGAGCUAGCGGAUGAAGUGAUGCAACACUGGAGCCGCUGGGAACUAAUUUGUAUGCGAAAGUAUAUUGAUUAGUUUUGGAGUACUCGUGGUCG
The gist of the method:
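A randomised library covering all eight P1ex-region intron nucleotides was built with the intron in the knt kanamycin-resistance gene on pET-22b(+) and held in E. coli BL21(DE3). Cells were grown overnight at 37°C or 30°C on LB agar, with or without 25 μg/mL kanamycin, plus 100 μg/mL carbenicillin, 50 μM IPTG and 0.2% rhamnose, and pooled colonies were amplicon-sequenced on an Illumina HiSeq 2500. DiMSum fitness is the error-weighted combination of wild-type-normalised replicate fold changes, kanamycin versus none.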

± gives the uncertainty stated by the source.

On to GCGAAGCAAUAUUACGGAGA, for which the “self-splicing fitness (ln)” value (30 °C) is -2.88 ± 0.26 and the “self-splicing fitness (ln)” value (37 °C) was -2.87 ± 0.44. The like results for AUGAAGCAAUAUUACGGAUU were, in that order, -1.08 ± 0.078 and -0.689 ± 0.1. Take GAGUAGCAAUAUUACGUACC: the “self-splicing fitness (ln)” value by setting is: (30 °C) -1.54 ± 0.17; (37 °C) -0.923 ± 0.27.

Regarding AGAUAGCAAUAUUACGACGG, the “self-splicing fitness (ln)” value was -2.09 ± 0.2 (30 °C) and -1.55 ± 0.25 (37 °C).

Turning to GGACAGCAAUAUUACGACCA, the “self-splicing fitness (ln)” value was -1.46 ± 0.13 (30 °C) and -0.645 ± 0.16 (37 °C).

Consider ACCAAGCAAUAUUACGCGAC, for which the “self-splicing fitness (ln)” value (30 °C) is -3.19 ± 0.16 and the “self-splicing fitness (ln)” value (37 °C) is -1.59 ± 0.16.

With UUUUAGCAAUAUUACGCUUC, the “self-splicing fitness (ln)” value (37 °C) was -1.81 ± 0.34. Take GGAGAGCAAUAUUACGGCAC: the “self-splicing fitness (ln)” value (30 °C) was -1.39 ± 0.37. For GAAAAGCAAUAUUACGAGGA, the “self-splicing fitness (ln)” value was -2.03 ± 0.15 (30 °C) and -1.78 ± 0.16 (37 °C). The like results for AUGCAGCAAUAUUACGGGGG were, in that order, -3.09 ± 0.18 and -1.9 ± 0.16. On the same counts, the results for GGCUAGCAAUAUUACGAACU are -0.723 ± 0.25 and 0.433 ± 0.25. On the same counts, the results for CGCGAGCAAUAUUACGCAAA are -2.95 ± 0.38 and -3.4 ± 0.43.

As to CACUAGCAAUAUUACGGGAG, the “self-splicing fitness (ln)” value (30 °C) is -1.54 ± 0.073 and the “self-splicing fitness (ln)” value (37 °C) was -0.152 ± 0.076. For AACUAGCAAUAUUACGCACC, the “self-splicing fitness (ln)” value is 0.625 ± 0.17 (30 °C) and -1.48 ± 0.25 (37 °C). For the sequence CGUGAGCAAUAUUACGGCCG, the “self-splicing fitness (ln)” value (30 °C) was -1.92 ± 0.43. In the case of UCUAAGCAAUAUUACGAUUC, the “self-splicing fitness (ln)” value was -3.14 ± 0.16 (30 °C) and -2.83 ± 0.23 (37 °C). On the same counts, the results for UCAGAGCAAUAUUACGCGGU are -4.12 ± 0.33 and -3.04 ± 0.32. The like results for CCCCAGCAAUAUUACGCAUC were, in that order, -3.84 ± 0.31 and -2.68 ± 0.3.

Take AAAAAGCAAUAUUACGAUCA: the “self-splicing fitness (ln)” value (30 °C) is -0.00996 ± 0.084 and the “self-splicing fitness (ln)” value (37 °C) is -0.0134 ± 0.094. The like results for CCAUAGCAAUAUUACGGGAG were, in that order, -2.96 ± 0.15 and -2.89 ± 0.25. On to GCGGAGCAAUAUUACGAAGU, for which the “self-splicing fitness (ln)” value (30 °C) was -3.58 ± 0.43 and the “self-splicing fitness (ln)” value (37 °C) was -2.08 ± 0.36. For AUUGAGCAAUAUUACGGCAA, the “self-splicing fitness (ln)” value (30 °C) was -1.58 ± 0.14 and the “self-splicing fitness (ln)” value (37 °C) was -0.831 ± 0.13. The like results for AGGUAGCAAUAUUACGAACG were, in that order, -0.798 ± 0.016 and -0.207 ± 0.035. The like results for UUUCAGCAAUAUUACGUGCA were, in that order, -0.77 ± 0.13 and 0.0542 ± 0.17. UUUCAGCAAUAUUACGACAC: the “self-splicing fitness (ln)” value by setting is: (30 °C) -2.24 ± 0.16; (37 °C) -2.97 ± 0.22. On the same counts, the results for GCUAAGCAAUAUUACGGUCA are -0.887 ± 0.13 and -0.914 ± 0.15. As for UUGGAGCAAUAUUACGCAGG, the “self-splicing fitness (ln)” value by setting is: (30 °C) -2.96 ± 0.28; (37 °C) -1.99 ± 0.33. On to CUGCAGCAAUAUUACGUGGC, for which the “self-splicing fitness (ln)” value runs as follows: (30 °C) -3.72 ± 0.21; (37 °C) -3.03 ± 0.24. The like results for UUAAAGCAAUAUUACGCCAU were, in that order, -2.96 ± 0.17 and -1.14 ± 0.15. The like results for AAGUAGCAAUAUUACGAAUA were, in that order, -3.24 ± 0.34 and -2.29 ± 0.23.

On to UACCAGCAAUAUUACGCUAG, for which the “self-splicing fitness (ln)” value was -1.76 ± 0.074 (30 °C) and -1.03 ± 0.083 (37 °C).

GUCCAGCAAUAUUACGUAGA: the “self-splicing fitness (ln)” value runs as follows: (30 °C) -0.646 ± 0.064; (37 °C) -0.201 ± 0.086. In the case of AGAAAGCAAUAUUACGCAAG, the “self-splicing fitness (ln)” value reads like this: (30 °C) -1.66 ± 0.13; (37 °C) -1.32 ± 0.18. On the same counts, the results for ACUUAGCAAUAUUACGUUAU are -3.66 ± 0.22 and -1.31 ± 0.16.

On to CUUCAGCAAUAUUACGUCGC, for which the “self-splicing fitness (ln)” value is -2.22 ± 0.36 (30 °C) and -2.3 ± 0.42 (37 °C). GGAGAGCAAUAUUACGCGAG: the “self-splicing fitness (ln)” value (30 °C) is -2.31 ± 0.48. On to UUUGAGCAAUAUUACGCGCG, for which the “self-splicing fitness (ln)” value reads like this: (30 °C) -1.85 ± 0.13; (37 °C) -0.956 ± 0.19.

Take CUAUAGCAAUAUUACGAGAU: the “self-splicing fitness (ln)” value by setting is: (30 °C) -3.91 ± 0.42; (37 °C) 0.449 ± 0.18. For AGACAGCAAUAUUACGUUAC, the “self-splicing fitness (ln)” value reads like this: (30 °C) -3.81 ± 0.19; (37 °C) -1.34 ± 0.17. On the same counts, the results for UUGCAGCAAUAUUACGAGGC are -3.55 ± 0.23 and -2.07 ± 0.22. Regarding UUUAAGCAAUAUUACGUACU, the “self-splicing fitness (ln)” value was -1.14 ± 0.12 (30 °C) and -0.327 ± 0.14 (37 °C). On the same counts, the results for UUACAGCAAUAUUACGUUAC are -3.56 ± 0.28 and -3.03 ± 0.27.

In the case of UCCCAGCAAUAUUACGCCAG, the “self-splicing fitness (ln)” value runs as follows: (30 °C) -2.08 ± 0.23; (37 °C) -2.27 ± 0.49.

As to ACCAAGCAAUAUUACGAUAG, the “self-splicing fitness (ln)” value was -4.36 ± 0.23 (30 °C) and -2.7 ± 0.21 (37 °C).

For GCAAAGCAAUAUUACGAGCC, for the setting “30 °C”, the “self-splicing fitness (ln)” value is -2.28 ± 0.28. With UAUAAGCAAUAUUACGAACC, the “self-splicing fitness (ln)” value runs as follows: (30 °C) -2.5 ± 0.41; (37 °C) -1.51 ± 0.32.

Take CGGUAGCAAUAUUACGAAAG: the “self-splicing fitness (ln)” value (30 °C) was -0.203 ± 0.16 and the “self-splicing fitness (ln)” value (37 °C) was -0.493 ± 0.16.

Take GACGAGCAAUAUUACGAGGC: the “self-splicing fitness (ln)” value is -3.33 ± 0.18 (30 °C) and -2.85 ± 0.29 (37 °C).

As to ACGGAGCAAUAUUACGUCAU, the “self-splicing fitness (ln)” value is -4.36 ± 0.37 (30 °C) and -3.01 ± 0.37 (37 °C). As to CUUCAGCAAUAUUACGACAC, the “self-splicing fitness (ln)” value (37 °C) is -1.11 ± 0.24. With AGGAAGCAAUAUUACGUCCA, the “self-splicing fitness (ln)” value by setting is: (30 °C) -0.764 ± 0.14; (37 °C) -0.0963 ± 0.22. As for CAGAAGCAAUAUUACGCAGA, the “self-splicing fitness (ln)” value (30 °C) was -2.59 ± 0.22 and the “self-splicing fitness (ln)” value (37 °C) was -2.55 ± 0.28. For the sequence UUAAAGCAAUAUUACGCUGA, the “self-splicing fitness (ln)” value was -0.633 ± 0.098 (30 °C) and -0.46 ± 0.14 (37 °C). Consider CUCUAGCAAUAUUACGCCCG, for which the “self-splicing fitness (ln)” value (37 °C) was -0.832 ± 0.42. For AAUCAGCAAUAUUACGGAGU, the “self-splicing fitness (ln)” value is, setting by setting: (30 °C) -0.488 ± 0.047; (37 °C) 0.346 ± 0.064. On the same counts, the results for GUGUAGCAAUAUUACGGACG are -0.958 ± 0.14 and -1.32 ± 0.17. The like results for GCGUAGCAAUAUUACGAGUU were, in that order, -2.87 ± 0.092 and -0.803 ± 0.097. The like results for GCCAAGCAAUAUUACGUAAG were, in that order, -1.37 ± 0.11 and -0.513 ± 0.13. For the sequence AAGCAGCAAUAUUACGUCUA, the “self-splicing fitness (ln)” value is -1 ± 0.053 (30 °C) and -1.53 ± 0.062 (37 °C). The like results for CUGCAGCAAUAUUACGUAAG were, in that order, -0.296 ± 0.069 and 0.277 ± 0.08. As for AUUCAGCAAUAUUACGCCCA, the “self-splicing fitness (ln)” value is, setting by setting: (30 °C) -1.11 ± 0.18; (37 °C) -0.0785 ± 0.23. In the case of UCCGAGCAAUAUUACGCACU, the “self-splicing fitness (ln)” value reads like this: (30 °C) -2.93 ± 0.25; (37 °C) -1.99 ± 0.22.

Take CAGCAGCAAUAUUACGGAUG: the “self-splicing fitness (ln)” value runs as follows: (30 °C) -2.06 ± 0.097; (37 °C) -1.48 ± 0.098.

Regarding AGUAAGCAAUAUUACGUCUA, the “self-splicing fitness (ln)” value runs as follows: (30 °C) -0.96 ± 0.16; (37 °C) -0.0188 ± 0.15. The like results for UCGGAGCAAUAUUACGGUAG were, in that order, -3.8 ± 0.35 and -2.8 ± 0.28. For the sequence UAAGAGCAAUAUUACGUUAC, the “self-splicing fitness (ln)” value (37 °C) was -2.7 ± 0.34. Turning to UCCCAGCAAUAUUACGCAGU, the “self-splicing fitness (ln)” value reads like this: (30 °C) -1.21 ± 0.075; (37 °C) -0.7 ± 0.1. In the case of GCUCAGCAAUAUUACGCCGC, for the setting “30 °C”, the “self-splicing fitness (ln)” value was -3.66 ± 0.44. GAUGAGCAAUAUUACGUACU: the “self-splicing fitness (ln)” value (30 °C) is -1.85 ± 0.19 and the “self-splicing fitness (ln)” value (37 °C) is -0.913 ± 0.26.

In the case of GGCUAGCAAUAUUACGUAGG, the “self-splicing fitness (ln)” value was -1.96 ± 0.14 (30 °C) and -1.78 ± 0.13 (37 °C). On the same counts, the results for GCGCAGCAAUAUUACGCAUA are -0.539 ± 0.1 and -0.285 ± 0.1. With AACCAGCAAUAUUACGGAGA, the “self-splicing fitness (ln)” value was -1.62 ± 0.086 (30 °C) and -1.5 ± 0.084 (37 °C). On the same counts, the results for UAGCAGCAAUAUUACGGCGA are -0.238 ± 0.077 and 0.939 ± 0.1. CUAAAGCAAUAUUACGUCUG: the “self-splicing fitness (ln)” value runs as follows: (30 °C) 0.155 ± 0.049; (37 °C) 0.458 ± 0.071. In the case of UGGGAGCAAUAUUACGAUUU, the “self-splicing fitness (ln)” value (30 °C) is -3.39 ± 0.3. As to AGGAAGCAAUAUUACGGCAA, the “self-splicing fitness (ln)” value is, setting by setting: (30 °C) -1.52 ± 0.096; (37 °C) -0.574 ± 0.12. GGACAGCAAUAUUACGUCUG: the “self-splicing fitness (ln)” value runs as follows: (30 °C) -1.1 ± 0.057; (37 °C) -0.31 ± 0.072.

CCGAAGCAAUAUUACGAGAA: the “self-splicing fitness (ln)” value is -2.48 ± 0.47 (30 °C) and -1.17 ± 0.49 (37 °C).
